Reference: the DeepSol protein solubility set

assay: soluble on expression in E. coli; label from the status in PepcDB or PDB records

Soluble on expression in E. coli, not soluble:
MGSDKIHHHHHHMLTKERTLQYFHEYFSEWIEIYKRGAVRPVTYQKYLMTLQRLTELSPNLKICELDKRKYQTLLNDYAKTHERQTTMDFHHHLKSAILDAMDEGLLTIDPTRKVIIKGKPVSDKKNKFLSQFELQSLLKSLNLTDKPNWDWFILLVAKTGLRFSEALALTPKDFDFECQKVKISKTWNYKNAEGGFGETKNLSSKRTIQIDIQLNTQIERLSKDLADDEPIFVQGRVFNSTVNNRLKVLCKKAGVPIISAHCLRHTHASLLIFAGVSIASIAKRLGHSSISTTQETYLHIIKELESQDNDKIMSHLSMITQ
MGSDKIHHHHHHMLYQLHEFQRSMLHPLTAWAQATAKTFTNPLSPLSLVPGAPRLAAGYELLYRLGKEYEKPAFDIKSVRSNGREIPIVEQTIMEKPFCRLVRFKRYADDPDTIKLLKDEPVVLVAAPLSGHHATLLRDTVRTLLQDHKVYVTDWVDARMVPAEHGPFHLSDYIYYIQEFIRHIGADKLHVISVCQPTVPVLAAISLMASAGEKTPLTMTMMGGPIDARKSPTAVNSLATNKSFEWFENNVIYTVPANYPGHGRRVYPGFLQHAGFVAMNPDRHLSSHYDYYLSLIQGDADDAEAHVRFYDEYNAVLDMAAEYYLDTIREVFQEFRLANGTWTIDGNPVRPQDIKGTALLTVEGELDDISGAGQTSAAHDLCAGIPQTHKHHLSAAKCGHYGIFSGRRWRDEIYPQLRDFIRKYR
MGSDKIHHHHHHMMDRQFQHAMLPQPTHDELARQNFVQSLKTHIFRNISPGNKVVYEKLAKPKFEQEHQRPPQNRHEIREVMQHESYYRWTSALKRIHQEILWDAVNTSVGRQLPELIERAKDRGGELGTLTLDPNFQIPNYQKAVDIHCMPGGYHSEFTGGDVAAGATYDRGAYLYGLGWLGPLNNDMGLSIVQNYLLPEYPDFRPRKILDMGCSVGNSTLPYVDAYPDAEVHAIDVGAPMLRYGHARAEALGKRVHFWQQNAEHTNFPDESFDLVVSHILLHEIPPSAVRKVMQESYRLLAPGGIMLHLEAPLYRHLDVYTQFIFDWETANNNEPFWSAVRDLDLVTLATEAGFAPDKTFEKFVPNGAWKAKVTNGLFQNGNSGSLNTWFVVAATK
MGSDKIHHHHHHMMFLFINISLAQTADTAVKSDELQTTTTSVDEVGVAPADPTPTLSKKELRRQRVAKRNLHYNILGGPSYTPDFGLLIGGSALMTFRMNPSDTTQQRSVVPMAIALMFEGGLNLFTKPQLFFKGDRFRIFGVFAYKNTLENFYGIGYSTNKDYPRGEDTSEYRYSGVQVNPWFLFRLGKSNFFAGPQIDFNYDKITKPAAGMIEQPSYIAAGGTDHGYSNLSSGLGFLLTYDTRDVPANAYRGTYLDFRGMMYNKAFGSDNNFYRLEIDYRQYKTLGKRKVLAWTVQTKNVFGNVPLTKYALSGTPFDLRGYYMGQFRDKSSHVMMAEYRQMINTDKSNWVKKMLNHVGYVAWGGCGFMGPTPGKIEGVLPNLGLGLRIEVQPRMNVRLDFGRDMVNKQNLFYFNMTEAF
MGSDKIHHHHHHMMKIYKKNIDHYIMLSFEINEMNIPFTGQIVVKEDDEVTREVILGRAKKIHEWLVLVDHIFSPFRTNSELTLYNHRKIEMTGTNLLFQEVFALSIWAKEMTQGLFSANFVGKYNPTGAVKGWAIEKAERIQLEPLLSDPNFVAVNLNGGGDMQFSSSDKHNWQWEIGIVNPFDNKKVISCFRMKNGAIATSGTSQRGEHLFNSSTGRAIPEKNFNVISSSVIGSELTYSDIWATAIATTTINDHSWLKRLSGSGLRISYNKKSERWLNHEIIDQKELIYA
MGSDKIHHHHHHMMKSNENNGAVTKSFAKKMESISPFELKNKLIEMADESIKKIAHTMLNAGRGNPNWIATTPREAFFLLGKFGLEECRRVMYLPEGIAGIPQKDGIAARFETFLKTNHSQPGAELLKGTYQYMLLEHAADPDTLVHEWAEGVVGDQYPVPDRILQFTEMIVQDYLAQEMCDRRPPKGKYDLFATEGGTAAMCYVFDSLQENFLLNKGDGIALMVPVFTPYIEIPQLRRYEFNVTEISADQMTTDGLHTWQYKDEDIDRLRNPQIKALFITNPSNPPSYTLSPETAARIVDIVKKDNPNLMIITDDVYGTFSPHFRSLMAELPQNTLCVYSFSKYFGATGWRDAVIALHEENIFDRMIAHLPEEQKTILNKRYSSLTLTPEKLKFIDRMVADSRQVALNHTAGLSLPQQTQMSLFASFAILDKENRYKNKMQEIIRRRLKALWDNTGFSLVDDPLRVGYYSEIDMLVWAKIFYGEEFVSYLKKTYSPLDVVFRLANETSLVLLNGGGFAGPEWSVRVSLANLNEKDYVKIGQGIKRILDEYAVKWQESRK
MGSDKIHHHHHHMMLNQYQIFTMVDNLSLLHHKNDPMNKNDLINTKSTLCPCGSKQLYSKCCEPYHLSHAVAERPEHLMRSRYSAFVLRQFHYLITTHHADYLHGLTEQQLAQGDVQWLGLQVLSSKQESDHGEVTFKAWFIEDKHIDAIYECSSFIKQDGCWFYTHGQQMQTPLPSRNDACICSSGKKFKLCCAKLMR
MGSDKIHHHHHHMMRLIRDLAQRPNPPDVGFQFVTDEEIGGRHGTGRLRDEGWHCDFMLCLEPTDLGIMFEHKGGMWAQLRIPGRAAHGSRPWEGDNPVYRLMQGIQAISERYPPPTGPHDWRTSVTPTEIRMGAGSRNQVPAEALVTFDIRWTADTTPETIQADLAAAFPDAEFISVMASAGLRTDPEHQEVGRIADIVERHIGHTPRFYREHFATDARYYSHIGIPAICLGPVGAGLHSAEEWVEIASLTSLYQIILDYIDTM
MGSDKIHHHHHHMMRPALRSTSTPKSPLVTCVSHDLTVSAPQGVFLSGLNTKFRAYVGGFGSGKTYVGCLDLGLFAGQHPKTVQGYFAPTYRDIRDTFWPTVDEAAHSLGFTTKVKSADKEVEFYRGRSYYGTTICRSMDDPGGIVGFKIARALVDEIDILSKDKAQAAWRKIIARMRLVLPGVVNGIGVTTTPEGFRFVYDSFKREPKSNYSMVQASTYENEAFLPPDYISTLLEDYPEELIKAYLMGEFVNLTSGTVYRSYDRLRHRSTQSIQPREPLHIGQDFNVGNMASVVFVQRGEDWHAVDELQGLQDTPHLIEVLCDRYEGHHLTIYPDASGSSRKTVNASTSDIELLRKAGHAIRAPSTNPAVKDRILAVNTAFENGRLFVNALRCKAYAEALEQQAYDKNGEPDKSAGLDHHPDAGGYFVHQKMPVVKPTFTRQELRL
MGSDKIHHHHHHMMVNESADQLYSFALLDEDAKREIRRSLLKAVALPGHLIPFASRDLPIARGWGTGGLQITLSIITPDDTLKVIDQGDDESVNAVNLRRLIHRTTGVATTTDTAAASLIQTRHRIPEEPLRADQILVLQVPMADPLRWVEPSLERAITMHGETDYGKMWVYLYESVVRAGDLRIASQYPVIVNHRYMMDTTPIPRWDVPKLHMAETLYLFGAGREKRIYAVPPHTPVEPLQFEDYPFRTEYRPGQRCARCGAENTFLTSHFVADANGGRWEMTCSDVAFCAKRQGEQRDR
MGSDKIHHHHHHMNADDAYKPIQRATLSEASWRILRIAQSVELRHPVSHETALAIWGVELPADSDCSVVSLRSSQGGYAGTDVDYGWSGESPAFGHSEHSIRLGQDFPDSDFQYFPDSQAVSRNQIPGLRQSASQPSQFPQSPAKLHTVAQSPARRGRVKKSTSVSADVTVHVWKGLSARHVREVAGVPVLMPVPAWSLAAGRWGIQDIVMVAESLIRHRFATRKGLIEFVKTESVPYRSKCLDALALVQSGSDSPKETEMRLTLVCYGLPIMQPNCVVPGVNFANGAAVTLDLVDAEHRFGLDYQGDHHRTDRAQYRRDQNKLSRLAAAGWTVFSVTQLDLSDELHRAAFAMNVAHALSSIVGRPIGVTTPLPWRKVVLRYRKARKLRLLD
MGSDKIHHHHHHMNEIFVFHGQEVRTVTINNEPWFVGKDVADILGYSKSRNAIALHVDEDDALKQGITDNLGRMQETIIINESGLYSLILSSKLPQVKEFKRWVTSEVLPQIRQQGAYVPENLSDEAFIALFTGQKKLKEHQLALAQDVDYLKNEQPIHPSFAQALLKKRKARVVSCLGGMDSPAYADKVFAQSVFRQAEVDFKDHFNINRYDMLPKKFAEAALSYWMTWEPSTNTKMKILEMNAYEL
MGSDKIHHHHHHMNEQIIEDLSSPWSGNTVHLVTVDGSQLIKKQYRKKEGYLREVHALRTVPQAICPSLVDAYEQLTYEPLQKNIQAADLDEIIGSLLRELHQHTVQKPSVFDPGNGVTKETWLDYLESFAPNWLQTIGTEKYESMYWSAINSVRAAYDRNQRALCLIHRDARLANVGEGSDGRFLFLDFELAIIGDPLWDVARYLIQSVHSETTFLKAYEFDHTEIEVLQAYKKLYAMSFMNYLIKNKQADTLDFKKCVNVLTN
